What all share (test): cell_activity; human T cells, 1 ug mRNA, day 3
Holding throughout (details): tags: N-terminal SV40 NLS

One data set concerns the target T1, B2M 13-14x.317 (Artificial Sequence).
T1 chain: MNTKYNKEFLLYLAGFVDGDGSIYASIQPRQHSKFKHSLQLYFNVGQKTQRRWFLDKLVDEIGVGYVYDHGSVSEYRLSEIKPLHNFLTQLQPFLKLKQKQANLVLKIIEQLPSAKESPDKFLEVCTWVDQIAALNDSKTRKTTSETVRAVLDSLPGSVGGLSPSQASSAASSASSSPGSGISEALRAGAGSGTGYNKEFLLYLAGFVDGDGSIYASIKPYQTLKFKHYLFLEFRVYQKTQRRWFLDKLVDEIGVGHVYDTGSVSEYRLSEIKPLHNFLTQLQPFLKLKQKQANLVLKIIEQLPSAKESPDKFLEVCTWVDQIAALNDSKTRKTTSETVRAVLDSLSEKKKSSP
Here is the method:
(§1) Donor human T cells were stimulated with anti-CD3 and anti-CD28 antibodies for 3 days, then electroporated with mRNA encoding a given B2M 13-14 meganuclease (1 μg) using the Amaxa 4D-Nucleofector (Lonza) according to the manufacturer's instructions. To look for the loss of B2M surface expression, cells were stained with an antibody recognizing β-2 microglobulin (BD Biosciences) as well as an antibody recognizing CD3 (BioLegend), a marker of T cells.

For another data set, the target named is T2, B2M 13-14x.551 (Artificial Sequence).
T2 chain: T1 chain with H32R, S217G, Y221R, T223R, Y229Q, F231L, Y237S, T261A
How it is done: as §1

The target in another data set is T3, B2M 13-14x.457 (Artificial Sequence).
T3 chain: T1 chain with H32A, S33A, S38T, S217K, Y221Q, T223S, F231N, Y237T, T261C, E266D
How it is done:
as §1

Another data set deals with T4, B2M 13-14x.377 (Artificial Sequence).
T4 chain: T1 chain with H32A, S33A, S38T, S217V, Y221N, T223A, Y229T, F231S, Y237S, T261F
How it is done:
as §1

Another data set deals with T5, B2M 13-14x.325 (Artificial Sequence).
T5 chain: T1 chain with Y221S, T223A, Y229S, F231A, Y237F, E266D
How it is done: as §1

The target of a further data set is T6, B2M 13-14x.287 (Artificial Sequence).
T6 chain: T1 chain with Y221C, T223C, Y229Q, Y237T, T261S, E266D
Here is the method: as §1

Another data set has as its target T7, B2M 13-14x.479 (Artificial Sequence).
T7 chain: T1 chain with H32R, S217R, Y221A, T223N, Y229A, F231H, Y237T, T261V, E266D
Here is the method:
as §1

Positions count from the first letter of the chain named. Names and notes keep the numbering of the source.

B1: B2M 13-14 recognition sequence (dsDNA)
DNA 1: CTATCTCTTGTACTACACTGAA
DNA 2: TTCAGTGTAGTACAAGAGATAG
With B1, the activity with B2M 13-14x.317 was 3.91 % B2M-negative; with B2M 13-14x.551, 40.3 % B2M-negative; with B2M 13-14x.457 it was 19.7 % B2M-negative; with B2M 13-14x.377 it was 75.9 % B2M-negative; with B2M 13-14x.325 it was 14.4 % B2M-negative; with B2M 13-14x.287, 75.7 % B2M-negative. The molecule also showed an activity with B2M 13-14x.479 of 67.2 % B2M-negative.

The values above are taken from patent US20210032664, “ENGINEERED MEGANUCLEASES WITH RECOGNITION SEQUENCES FOUND IN THE HUMAN BETA-2 MICROGLOBULIN GENE” (Precision Biosciences, Inc., published 2021).
